B1: unnamed (protein)
chain: MALDPGAAALLQQMAQAGVPPFNQMTVQQARQSMTGLAGTAPKYPVAKVEDRTIPGPAGQIPVRIYWPISGQKVGLVVYYHGGGWVICDLETHDGTCRQLANASDCIVMSVDYRLAPEHKFPAAVEDCYAAAAWAAENAATFGVDPSRLVVAGDSAGGNLAAVVALLAKERGGPRLAHQVLIYPVTDYSFDRPSYRENAEGYLLTRDAMEWFWRHYLNSDADGQNPLASPLRAPDLRGLPSATVITAEYDPLRDEGEAYAQRLMEAGVPTTCVRYLGQIHGFVTLEHVLPAGRQALLALGATIKGVLTGALGGQPAAA
B2: unnamed (protein)
chain: MALYPSARWVLDRMAERGTRPFNEVPVERARQQFDAMMAGAPRPEVARTEDRTVPGPAGDIPVRIYWPQQQTLPLLLVYFHGGGWIMGSIESHDPTCRAIANVAGCIVVSVGYRLAPEHKFPEPLEDCYAAVRWAEENAASLGADPSLLAVGGDSAGGNLAAAVSLLARDRGGPRLAHQVLAYPVLSHGAAFPSYEENADGYFLTREMMLYCWRQYLRDEKDGDDPYASPLKASELSGLPTATIITAEHDPLRDEAEAYGVRLAQAGVPNYCLRYVGMIHGFLSLDNLLPPGRHALWSVATGLRLAATETHKRA

Each protein was assayed on p-NP-C2 (assay: not given). Conditions: pH 9; 30 °C.

Protein | Km [µM] | kcat [s⁻¹] | kcat/Km [M⁻¹ s⁻¹]
B1 | 220 | 57.1 | 260000
B2 | 50 | 42 | 839000

The proteins below were run on p-NP-C4 (assay: not given). Conditions: pH 9; 30 °C.

Protein | Km [µM] | kcat [s⁻¹] | kcat/Km [M⁻¹ s⁻¹]
B1 | 80 | 8.77 | 110000
B2 | 60 | 66.2 | 1.1e+06

These proteins were tested on p-NP-C6 (assay: not given). Conditions: pH 9; 30 °C.

Protein | Km [µM] | kcat [s⁻¹] | kcat/Km [M⁻¹ s⁻¹]
B1 | 90 | 0.318 | 3530
B2 | 40 | 1.45 | 36200

These proteins were tested on PET (assay: Proxy for plastic degradation [Released monomer concentration (HPLC/LC-MS) (BHET)]). Conditions: pH 8.

Protein | Proxy for plastic degradation [mM]
B1 | 0.075
B2 | 0.126

Source: the PETadex activity labels (doi:10.1128/aem.01704-22)
